Data on two molecules can be found in US20180246080A1, “METHODS USING AXL AS A BIOMARKER OF EPITHELIAL-TO-MESENCHYMAL TRANSITION” (BERGEN TEKNOLOGIOVERFORING AS, priority 2009, published 2018).

One data set concerns Axl. Kind of data set: FACS analysis of Axl expression in epi-allelic MDA-MB-231 cell series. The format is cell-based, human. Conditions: MDA-MB-231/GFP-Luc cells. From the text:
All shRNAs were expressed from a modified human U6 promoter in the LTR of the retroviral vectors RRI-Red/L087 (Genbank: EU424173) used to transform MDA-MB-231 cells via retroviral infection. RRI-Red also expresses Puro2AmRed1 resulting in puromycin resistance and red fluorescence in successfully transformed cells. All Axl cDNA nucleotides are numbered as in Genbank: BC032229.
The MDA-MB-231 cells were trypsinated using standard procedures and washed in PBS-0.2% BSA before staining with anti-Axl (#MAB154, R&D Systems) at a final concentration of […] in PBS-0.2% BSA for 40 minutes at room temperature. Cells were washed twice in PBS-0.2% BSA) and incubated with secondary antibody (Goat anti-mouse APC (Allophyocyanin, crosslinked, Molecular Probes) at a final concentration of 0.2 mg/ml for 30 minutes at room temperature in the dark. Cells were washed twice with PBS-2% BSA and resuspended in […] PBS-0.2% BSA before analysis on a FacsCalibur Flow Cytometer (BD Biosciences). […]
The strong correlation of Axl expression in early breast carcinomas with poor survival indicates an important role for Axl in overall disease pathogenesis. As breast cancer-related mortality invariably results from complications of metastatic disease, we assessed whether Axl expression was required for malignant breast carcinoma cell invasiveness. […]

A further data set concerns mouse Axl. The data set can be described thus: Flow cytometry of mouse Axl surface expression in 4T1-GFP-Luc cells. The settings on record: 4T1 cells, retroviral shRNA expression. It is filed as cell-based. The method, then:
The MDA-MB-231 cells were trypsinated using standard procedures and washed in PBS-0.2% BSA before staining with anti-Axl (#MAB154, R&D Systems) at a final concentration of […] in PBS-0.2% BSA for 40 minutes at room temperature. Cells were washed twice in PBS-0.2% BSA) and incubated with secondary antibody (Goat anti-mouse APC (Allophyocyanin, crosslinked, Molecular Probes) at a final concentration of 0.2 mg/ml for 30 minutes at room temperature in the dark. Cells were washed twice with PBS-2% BSA and resuspended in […] PBS-0.2% BSA before analysis on a FacsCalibur Flow Cytometer (BD Biosciences). Data analyses were carried out using the FlowJo software (Tree Star, Inc., Ashland, Oreg., USA).
In order to validate our results in a different metastatic model we transduced the highly metastatic mouse breast carcinoma 4T1 cell line with the CSI-construct and selected for GFPluciferase expression by FACS (4T1-GFP-Luc). […] A mismatched human Axl-targeting shRNA (shAxl279) had no effect on mouse Axl expression.
(In general: Flow cytometry measures light scatter and fluorescence of single cells or particles in a stream.)

The test system of a further data set is MDA-MB-231/GFP-Luc cells. The data set can be described thus: Tissue engineered tricellular tumor implants (MDA-MB-231, EC, SMC) in scaffolds. The format is in vivo, NOD-SCID mice. The text has this: 1×10^6 MDA-MB 231 cells which express GFP-Luc biomarker and different RNAs interference that regulate Axl expression, were suspended in a 1:1 mixture of F-12 Kaighn's (Invitrogen) :Matrigel (BD Biosciences) and seeded in 6×6 mm Poly-lactic acid (PLLA) scaffolds.
Females NOD/SCID/B2mnull were anesthetized by exposure to 1-2% isoflurane (Isoba vet.-Schering-Plough A/S) during the implantation procedure and on subsequent imaging days. Two scaffolds were implanted subcutaneously (s.c) in each mouse according to Nor et al. Lab Invest.; 81 (4) 453; 2001 Scaffolds with cells that express Axl were implanted on the left side of each mouse while on the right side scaffolds with cells in which Axl was knockdown. After the surgical procedure, anesthetized mice were placed in Imaging System and imaged for both left and right sides 10-15 min after intraperitoneal injection of 150 mg/kg D-luciferin (Biosynth). Tumor development was monitored in vivo once a week by imaging for 4 weeks.
For tricellular implant MDA-MB-231 cells infected with shRNA vectors and GFP-Luc were mixed with Human dermal microvascular endothelial cells (HMVEC), and pulmonary artery smooth muscle cells (PASMC) in ratio of 1:2:2. Tumor growth was monitored weekly in vivo by imaging for 4 consecutive weeks.
To ascertain whether Axl influences the ability of breast cancer cells to attract and co-opt blood vessels, we developed a tri-cellular implant approach comprising MB-MDA-231 cells seeded together with primary human microvascular endothelial (HuMVEC) and vascular smooth muscle cells (vSMC) to create tumor vasculature. Implants of human EC-vSMC cells readily form perfused intrascaffold human microvasculature in NOD-SCID mice within a two-week period (Hegen et al., in preparation). […] The engineered human tumor vasculature is evenly distributed and perfused with intralumenal red blood cells. In contrast, Axl knockdown, blocked tumor formation, without affecting development of a perfused human microvasculature.

The test system of another data set is MDA-MB-231-D3H2LN cells. Kind of data set: Mammary fat pad spontaneous metastasis model, bioluminescence imaging. It is filed as in vivo, NOD-SCID mice. How it is done:
BLI was performed using a eXplore Optix (GE Healtcare) camera mounted in a specimen box. Imaging and quantification of signals was done using eXplore Optix software. For in vivo imaging, animals received via intraperitoneal injection (i.p) the substrate D-luciferin (Biosynth), 150 mg/kg in PBS (Phosphate Buffered Saline) and anesthetized with isoflurane. Mice were placed into warmed stage inside of camera box with continuous exposure to 1-2% isoflurane and imaged for different views depending on the tumor model. Region of interest were identified and were quantified as total photon/sec-1 using eXplore Optix software (GE Explore Optix). In vivo background bioluminescence was in the range of 2-3×10 photon counts. […]
Subline of human MDA-MB-231 cells (called MDA-MB 231 DH3L2N—Xenogen) which express GFP-Luc biomarker and different RNAs interference that regulate Axl expression were injected into mammary pad of mice. […] Tumor growth and metastasis spread was monitored every second week by bioluminescent imaging for up to 9 weeks. […]
In order to evaluate the requirement of Axl for breast cancer metastasis, we orthotopically injected MDA-MB-231-D3H2LN, a rapidly growing and highly metastatic in vivo MDA-231 isolate, into the mammary fat pad. Using whole body bioluminescent imaging we temporally monitored spontaneous metastasis development over a 9-week period. […]

B1: shAxl279: ineffective human Axl-targeting shRNA, SEQ ID NO: 3, used as control (nucleic acid, listed as Homo sapiens)
chain: GCTTCAGGCGATTTCCCCGGCGTTGGATCCCTGGTCGGATCCAACGCCGGGGAAATCGCCTGAAGC
With B1, in the data set with Axl, the “Axl knockdown efficacy (Axl-targeting shRNA)” value is on record as “ineffective”. For the same molecule, the “mouse Axl surface levels” value in the data set with mouse Axl is “had no effect”.

B2: shAxl2: human Axl-targeting shRNA, SEQ ID NO: 1, expressed from retroviral vector (nucleic acid, listed as Homo sapiens)
chain: GACATCCTCTTTCTCCTGCGAAGCCCATCTGGTCATGGGCTTCGCAGGAGAAAGAGGATGTC
In the case of B2, in the data set on MDA-MB-231/GFP-Luc cells (excised tumors, 28 days), the Intrascaffold vessel diameter result is given as “unaffected” and the Microvascular density result is “slightly enhanced”. In the data set with MDA-MB-231/GFP-Luc cells (tricellular implants, in vivo imaging), the “Tissue engineered tumor growth” value is “inhibited”. In addition, the Overall survival entry with MDA-MB-231-D3H2LN cells (orthotopically injected MDA-MB-231-D3H2LN/GFP-Luc cells, P=0.013 log-rank test vs control) was “significantly increased”. In addition, in the data set with MDA-MB-231-D3H2LN cells (whole body bioluminescent imaging over 9 weeks), the Spontaneous metastasis entry is “no metastases were detected”.
